In patent US20190307836A1 (Bicycle, published 2019):
Starred links: 1 amine or outer side, 2 acyl side, 3 side chain; linkers in the order of their positions; H or OH if unused. Positions of bridges follow the written chain, without caps; N, C: chain ends. Non-standard residues stand in square brackets, D forms with d. Chains are numbered I, II in the order given. No end group written: not given here. *: point of attachment. TATA = O=C(CC[*:1])N1CN(C(=O)CC[*:2])CN(C(=O)CC[*:3])C1; 1Nal = N[C@@H](Cc1cccc2ccccc12)C(=O)O; Hyp = O=C(O)[C@@H]1C[C@@H](O)CN1; hArg = N=C(N)NCCCC[C@H](N)C(=O)O; tBuAla = CC(C)(C)C[C@H](N)C(=O)O; Nle = CCCC[C@H](N)C(=O)O; Pent4ynoyl = C#CCCC(=O)*; Dap = NC[C@H](N)C(=O)O; βAla = NCCC(=O)O; Sar = CNCC(=O)O

T1: Human Nectin-4 (residues Gly32-Ser349; NCBI RefSeq: NP_112178.2) with C-terminal FLAG tag (human, UniProt Q96NY8 32-349, randomly biotinylated with EZ-Link Sulfo-NHS-LC-LC-Biotin)
T1 construct: range 32-349; also called human Nectin-4 protein; not shown: C-terminal FLAG tag
T1 sequence (looked up): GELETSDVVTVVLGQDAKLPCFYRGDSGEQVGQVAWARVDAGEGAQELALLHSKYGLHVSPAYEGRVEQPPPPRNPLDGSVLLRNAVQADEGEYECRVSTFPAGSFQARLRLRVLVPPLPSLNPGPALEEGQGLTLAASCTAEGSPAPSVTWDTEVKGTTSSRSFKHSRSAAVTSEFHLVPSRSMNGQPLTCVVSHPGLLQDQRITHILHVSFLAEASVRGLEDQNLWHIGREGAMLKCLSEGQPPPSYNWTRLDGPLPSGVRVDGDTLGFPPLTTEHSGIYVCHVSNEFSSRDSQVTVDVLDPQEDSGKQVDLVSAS


How the values were obtained:
[1] = biological target: CD137 on human PBMC (anti-CD3 stimulated) (human, UniProt Q07011 24-255); assay: cell-based or functional assay
Chain of CD137 on human PBMC (anti-CD3 stimulated) (Q07011 24-255): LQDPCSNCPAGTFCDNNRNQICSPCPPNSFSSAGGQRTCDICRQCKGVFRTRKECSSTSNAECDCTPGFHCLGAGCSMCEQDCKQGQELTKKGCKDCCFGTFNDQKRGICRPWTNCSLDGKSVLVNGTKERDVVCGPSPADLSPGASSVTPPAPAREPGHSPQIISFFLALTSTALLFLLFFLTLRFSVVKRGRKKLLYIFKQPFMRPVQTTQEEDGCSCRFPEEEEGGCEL

[2] = biological target: T2, Recombinant human CD137 (R&D systems) (human, UniProt Q07011 24-186, biotinylated with EZ-Link Sulfo-NHS-LC-LC-Biotin); assay: SPR (Biacore), biotinylated human CD137 on streptavidin chip
T2 construct: Bought protein; also called human CD137 protein; TNFRSF9
Procedure: The protein was desalted to remove uncoupled biotin using spin columns into PBS.
For analysis of peptide binding, a Biacore T200 or a Biacore 3000 instrument was used with a XanTec CMD500D chip. Streptavidin was immobilized on the chip using standard amine-coupling chemistry at 25° C. with HBS-N (10 mM HEPES, 0.15 M NaCl, pH 7.4) as the running buffer. Briefly, the carboxymethyl dextran surface was activated with a 7 min injection of a 1:1 ratio of 0.4 M 1-ethyl-3-(3-dimethylaminopropyl) carbodiimide hydrochloride (EDC)/0.1 M N-hydroxy succinimide (NHS) at a flow rate of 10 μl/min. For capture of streptavidin, the protein was diluted to 0.2 mg/ml in 10 mM sodium acetate (pH 4.5) and captured by injecting 120 μl of onto the activated chip surface. Residual activated groups were blocked with a 7 min injection of 1 M ethanolamine (pH 8.5) and biotinylated CD137 captured to a level of 270-1500 RU. Buffer was changed to PBS/0.05% Tween 20 and a dilution series of the peptides was prepared in this buffer with a final DMSO concentration of 0.5%. The top peptide concentration was 500 nM with 6 further 2-fold or 3-fold dilutions. The SPR analysis was run at 25° C. at a flow rate of 90 μl/min with 60 seconds association and 900 seconds dissociation. After each cycle a regeneration step (10 μl of 10 mM glycine pH 2) was employed. Data were corrected for DMSO excluded volume effects as needed. All data were double-referenced for blank injections and reference surface using standard processing procedures and data processing and kinetic fitting were performed using Scrubber software, version 2.0c (BioLogic Software). Data were fitted using simple 1:1 binding model allowing for mass transport effects where appropriate.

[3] = biological target: CD137 expressed on cells (CHO cells expressing CD137); Jurkat cells of the Promega CD137 luciferase reporter … (UniProt Q07011 24-255, limits assumed); assay: cell-based or functional assay
Chain of CD137 expressed on cells (CHO cells expressing CD137); Jurkat cells of the Promega CD137 luciferase reporter … (Q07011 24-255 limits assumed): as the sequence (Q07011 24-255) above

[4] = biological target: T1, Human Nectin-4 (residues Gly32-Ser349; …); assay: SPR (Biacore 3000), biotinylated human Nectin-4 on streptavidin chip
Procedure: Streptavidin was immobilized on the chip using standard amine-coupling chemistry at 25° C. with HBS-N (10 mM HEPES, 0.15 M NaCl, pH 7.4) as the running buffer. […] Buffer was changed to PBS/0.05% Tween 20 and a dilution series of the peptides was prepared in this buffer with a final DMSO concentration of 0.5%. […] Data were corrected for DMSO excluded volume effects. All data were double-referenced for blank injections and reference surface using standard processing procedures and data processing and kinetic fitting were performed using Scrubber software, version 2.0c (BioLogic Software). Data were fitted using simple 1:1 binding model allowing for mass transport effects where appropriate.

human EphA2 protein = biological target: T3, human EphA2 protein (human, UniProt P29317 25-534, limits assumed, biotinylated with EZ-Link Sulfo-NHS-LC-Biotin); assay: SPR (Biacore T200), biotinylated human EphA2 on streptavidin chip
T3 construct: Construct not described
T3 sequence (P29317 25-534 limits assumed): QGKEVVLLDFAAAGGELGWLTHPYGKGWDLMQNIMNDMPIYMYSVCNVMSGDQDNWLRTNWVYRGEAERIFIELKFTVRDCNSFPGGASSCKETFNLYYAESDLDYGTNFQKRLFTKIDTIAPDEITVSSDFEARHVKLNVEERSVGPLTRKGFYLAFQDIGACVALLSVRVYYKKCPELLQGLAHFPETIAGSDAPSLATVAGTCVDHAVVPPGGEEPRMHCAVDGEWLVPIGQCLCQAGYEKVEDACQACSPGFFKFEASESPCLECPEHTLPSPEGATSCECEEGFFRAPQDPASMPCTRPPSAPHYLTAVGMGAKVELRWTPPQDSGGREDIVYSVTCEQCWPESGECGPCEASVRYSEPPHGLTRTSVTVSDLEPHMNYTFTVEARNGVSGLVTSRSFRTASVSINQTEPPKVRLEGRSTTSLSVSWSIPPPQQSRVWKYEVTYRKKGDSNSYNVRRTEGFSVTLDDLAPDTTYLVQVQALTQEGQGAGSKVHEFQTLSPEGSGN
Procedure: Streptavidin was immobilized on the chip using standard amine-coupling chemistry at 25° C. with HBS-N (10 mM HEPES, 0.15 M NaCl, pH 7.4) as the running buffer. Briefly, the carboxymethyl dextran surface was activated with a 7 min injection of a 1:1 ratio of 0.4 M 1-ethyl-3-(3-dimethylaminopropyl) carbodiimide hydrochloride (EDC)/0.1 M N-hydroxy succinimide (NHS) at a flow rate of 10 μl/min. […] Data were corrected for DMSO excluded volume effects. All data were double-referenced for blank injections and reference surface using standard processing procedures and data processing and kinetic fitting were performed using Scrubber software, version 2.0c (BioLogic Software). Data were fitted using simple 1:1 binding model allowing for mass transport effects where appropriate.

[5] = biological target: CD137 expressed on cells (CHO cells expressing CD137; Jurkat cells of the Promega CD137 luciferase reporter assay) (UniProt Q07011); assay: cell-based or functional assay
Chain of CD137 expressed on cells (CHO cells expressing CD137; Jurkat cells of the Promega CD137 luciferase reporter assay) (Q07011 24-255 limits assumed): as the sequence (Q07011 24-255) above

| Binder | EC50 (nM), IFN-γ secretion, human PBMC co-culture with 4T1-D02(Nectin4+) [1] | max IFN-γ (pg/ml), human PBMC co-culture with 4T1-D02(Nectin4+) [1] | Kd [2] | EC50 (nM), CD137 reporter assay, co-culture with H1376 (Nectin4) [3] | Kd [4] | Kd (human EphA2 protein) | Fold Induction over Background, CD137 reporter assay, co-culture with PC3 (EphA2) [5] | EC50 (nM), CD137 reporter assay, co-culture with PC3 (EphA2) [5] | Fold Induction over Background, CD137 reporter assay, co-culture with H1376 (Nectin4) [5] |
| --- | --- | --- | --- | --- | --- | --- | --- | --- | --- |
| heterotandem bicyclic peptide complex BCY8854 (BCY7732: N-terminal acetyl; Nle12; C-terminal Dap (diaminopropionic acid) bearing the linker; Ci, Cii, Ciii on TATA scaffold; BCY8846: N-terminal [PYA]-[B-Ala]-[Sar10]- (linker on PYA); 1Nal2, dD3, HArg5, HyP11; Ci, Cii, Ciii on TATA scaffold) peptide 1: CPXDCMXDWSTPXWC peptide 2: ACIEEGQYCFADPYXC | 0.89 nM | 16000 pg/mL | 108 nM | 1.2 nM | 2.76 nM | – | – | – | – |
| heterotandem bicyclic peptide complex BCY8942 (BCY8045: N-terminal acetyl; D-Ala8, Nle12; C-terminal Dap (diaminopropionic acid) bearing the linker; Ci, Cii, Ciii on TATA scaffold; BCY6169: N-terminal [PYA]-[B-Ala]-[Sar10]- (linker on PYA); HArg in the A-[HArg]-D extension; HyP1, dD10, HArg12; Ci, Cii, Ciii on TATA scaffold) peptide 1: AXDCXLVNPLCLHPDWXC peptide 2: ACIEEGQYCFADPYXC | – | – | 853 nM | – | – | 1.7 nM | < 2 fold | – | – |
| heterotandem bicyclic peptide complex BCY9759 (BCY7732: N-terminal acetyl; Nle12; C-terminal Dap (diaminopropionic acid) bearing the linker; Ci, Cii, Ciii on TATA scaffold; BCY8116: linker on N-terminus; 1Nal2, dD3, HArg5, HyP11; Ci, Cii, Ciii on TATA scaffold) peptide 1: CPXDCMXDWSTPXWC peptide 2: ACIEEGQYCFADPYXC | – | – | 44.3 nM | 2.7 nM | 2.14 nM | – | – | – | – |
| heterotandem bicyclic peptide complex BCY10572 (linker I:1-I:5-I:15, II:1-II:8-II:15 via TATA; not fully specified (C-terminus, bridges); also: chains joined by PEG5 linker on chain 1 N-terminus, triazole to D-Lys(PYA)) peptide 1: CP[1Nal][dD]CM[hArg]DWSTP[Hyp]WC peptide 2: Ac-C[tBuAla]PE[dK](Pent4ynoyl)PYCFADPY[Nle]CA | 0.25 nM | 17900 pg/mL | 5 nM | – | – | – | – | – | – |
| heterotandem bicyclic peptide complex BCY10577 (linker I:14-I:21-I:28, II:1-II:8-II:15 via TATA; not fully specified (C-terminus); numbers in words are those of the source; also: chains joined by CH2 linker, triazole from PYA, linker on Dap side chain) peptide 1: {Pent4ynoyl-βAla}-[Sar][Sar][Sar][Sar][Sar][Sar][Sar][Sar][Sar][Sar]A[hArg]DC[Hyp]LVNPLCLHP[dD]W[hArg]C peptide 2: Ac-C[tBuAla]PE[dA]PYCFADPY[Nle]C[Dap] | – | – | – | – | – | – | 37 fold | 0.28 nM | – |
| heterotandem bicyclic peptide complex BCY9350 (BCY7732: N-terminal acetyl; Nle12; C-terminal Dap (diaminopropionic acid) bearing the linker; Ci, Cii, Ciii on TATA scaffold; BCY11942: N-terminal [PYA]-[B-Ala]-[Sar10]- (linker on PYA); 1Nal2, dD3, HArg5, dW7, HyP11, dW12; Ci, Cii, Ciii on TATA scaffold) peptide 1: CPXDCMXDWSTPXWC peptide 2: ACIEEGQYCFADPYXC | – | – | 69.4 nM | – | – | – | – | – | < 2 fold |
| heterotandem bicyclic peptide complex BCY10000 (linker I:11-I:15-I:25, II:1-II:8-II:15 via TATA; not fully specified (C-terminus); numbers in words are those of the source; also: linker to a chain's N/C-terminus via PEG12) peptide 1: {Pent4ynoyl-βAla}-[Sar][Sar][Sar][Sar][Sar][Sar][Sar][Sar][Sar][Sar]CP[1Nal][dD]CM[hArg]DWSTP[Hyp]WC peptide 2: Ac-C[tBuAla]PE[dA]PYCFADPY[Nle]C[Dap] | 0.21 nM | 19600 pg/mL | 6.19 nM | 0.58 nM | 2.26 nM | – | – | – | – |
